Consider 1 substance from article PMC4397020.

The target of this assay is fibronectin (from human plasma) (human) (UniProt P02751). In words: ELISA; as the adhesion assay on coated substrate, over a range of protein concentrations; KD estimated with the xy analysis subprogram of GraphPad Prism v. 5.

pKd: −log10 of the molar value.

UniProt P02751, sequence (P02751 other isoform, or with tags, fused parts or gaps, chain 1 of 2): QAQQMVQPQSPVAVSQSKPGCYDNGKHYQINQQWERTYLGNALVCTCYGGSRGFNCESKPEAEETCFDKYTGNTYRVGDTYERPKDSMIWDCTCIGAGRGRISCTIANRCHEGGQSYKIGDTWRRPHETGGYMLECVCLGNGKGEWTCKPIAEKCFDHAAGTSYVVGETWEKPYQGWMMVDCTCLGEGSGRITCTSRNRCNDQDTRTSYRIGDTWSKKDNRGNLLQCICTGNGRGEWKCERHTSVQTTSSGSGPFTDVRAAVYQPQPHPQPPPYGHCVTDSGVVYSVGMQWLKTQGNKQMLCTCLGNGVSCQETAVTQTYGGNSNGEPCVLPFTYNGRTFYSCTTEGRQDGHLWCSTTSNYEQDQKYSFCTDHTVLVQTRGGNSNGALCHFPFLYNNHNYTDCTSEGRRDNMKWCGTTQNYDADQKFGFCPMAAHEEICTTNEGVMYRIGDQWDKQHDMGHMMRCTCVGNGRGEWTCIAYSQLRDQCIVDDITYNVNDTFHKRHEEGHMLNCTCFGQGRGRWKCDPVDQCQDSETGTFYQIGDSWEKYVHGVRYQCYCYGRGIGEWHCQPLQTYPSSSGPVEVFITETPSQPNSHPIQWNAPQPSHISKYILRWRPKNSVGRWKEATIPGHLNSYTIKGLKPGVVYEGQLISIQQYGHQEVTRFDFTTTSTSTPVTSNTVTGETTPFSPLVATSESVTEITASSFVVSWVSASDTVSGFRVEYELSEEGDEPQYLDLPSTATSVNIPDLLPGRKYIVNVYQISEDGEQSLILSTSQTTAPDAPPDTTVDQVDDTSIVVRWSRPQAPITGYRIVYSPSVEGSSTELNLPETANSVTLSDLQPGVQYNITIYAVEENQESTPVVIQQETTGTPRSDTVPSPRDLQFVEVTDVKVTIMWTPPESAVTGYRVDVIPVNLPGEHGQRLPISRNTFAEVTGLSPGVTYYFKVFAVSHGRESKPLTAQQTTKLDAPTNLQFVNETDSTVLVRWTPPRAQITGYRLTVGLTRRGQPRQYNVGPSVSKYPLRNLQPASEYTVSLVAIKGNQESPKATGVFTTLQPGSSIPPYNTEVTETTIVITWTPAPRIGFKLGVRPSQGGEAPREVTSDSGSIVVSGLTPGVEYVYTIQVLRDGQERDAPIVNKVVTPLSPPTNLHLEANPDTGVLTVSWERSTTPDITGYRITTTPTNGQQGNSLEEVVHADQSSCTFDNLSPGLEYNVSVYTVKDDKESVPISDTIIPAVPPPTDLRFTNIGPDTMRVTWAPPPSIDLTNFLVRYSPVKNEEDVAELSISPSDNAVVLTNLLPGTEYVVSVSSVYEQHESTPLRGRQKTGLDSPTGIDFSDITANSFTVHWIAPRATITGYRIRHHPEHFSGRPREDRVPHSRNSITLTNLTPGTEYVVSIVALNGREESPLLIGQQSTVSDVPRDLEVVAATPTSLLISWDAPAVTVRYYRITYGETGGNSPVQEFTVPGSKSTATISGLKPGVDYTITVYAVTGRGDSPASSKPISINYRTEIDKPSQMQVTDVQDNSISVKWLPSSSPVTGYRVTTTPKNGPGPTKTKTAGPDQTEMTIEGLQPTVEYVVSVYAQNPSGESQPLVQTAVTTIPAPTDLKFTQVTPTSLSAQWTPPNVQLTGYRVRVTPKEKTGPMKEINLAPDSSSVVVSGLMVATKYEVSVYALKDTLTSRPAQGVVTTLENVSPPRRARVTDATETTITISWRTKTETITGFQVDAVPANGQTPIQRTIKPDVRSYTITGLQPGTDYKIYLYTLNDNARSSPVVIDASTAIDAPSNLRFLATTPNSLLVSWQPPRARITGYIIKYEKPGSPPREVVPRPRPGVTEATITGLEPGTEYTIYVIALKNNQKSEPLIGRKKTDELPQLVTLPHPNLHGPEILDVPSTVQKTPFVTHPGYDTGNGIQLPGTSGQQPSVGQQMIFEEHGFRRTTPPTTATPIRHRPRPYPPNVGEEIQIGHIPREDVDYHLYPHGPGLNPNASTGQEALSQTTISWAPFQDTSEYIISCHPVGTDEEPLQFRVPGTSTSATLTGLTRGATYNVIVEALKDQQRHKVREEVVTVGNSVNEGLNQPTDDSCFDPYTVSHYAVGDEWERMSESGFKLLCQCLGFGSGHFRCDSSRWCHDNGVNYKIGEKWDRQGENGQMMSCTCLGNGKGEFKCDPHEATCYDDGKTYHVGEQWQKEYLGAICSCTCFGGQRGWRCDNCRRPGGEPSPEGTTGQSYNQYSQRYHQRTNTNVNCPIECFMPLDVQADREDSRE
UniProt P02751, sequence (P02751 other isoform, or with tags, fused parts or gaps, chain 2 of 2): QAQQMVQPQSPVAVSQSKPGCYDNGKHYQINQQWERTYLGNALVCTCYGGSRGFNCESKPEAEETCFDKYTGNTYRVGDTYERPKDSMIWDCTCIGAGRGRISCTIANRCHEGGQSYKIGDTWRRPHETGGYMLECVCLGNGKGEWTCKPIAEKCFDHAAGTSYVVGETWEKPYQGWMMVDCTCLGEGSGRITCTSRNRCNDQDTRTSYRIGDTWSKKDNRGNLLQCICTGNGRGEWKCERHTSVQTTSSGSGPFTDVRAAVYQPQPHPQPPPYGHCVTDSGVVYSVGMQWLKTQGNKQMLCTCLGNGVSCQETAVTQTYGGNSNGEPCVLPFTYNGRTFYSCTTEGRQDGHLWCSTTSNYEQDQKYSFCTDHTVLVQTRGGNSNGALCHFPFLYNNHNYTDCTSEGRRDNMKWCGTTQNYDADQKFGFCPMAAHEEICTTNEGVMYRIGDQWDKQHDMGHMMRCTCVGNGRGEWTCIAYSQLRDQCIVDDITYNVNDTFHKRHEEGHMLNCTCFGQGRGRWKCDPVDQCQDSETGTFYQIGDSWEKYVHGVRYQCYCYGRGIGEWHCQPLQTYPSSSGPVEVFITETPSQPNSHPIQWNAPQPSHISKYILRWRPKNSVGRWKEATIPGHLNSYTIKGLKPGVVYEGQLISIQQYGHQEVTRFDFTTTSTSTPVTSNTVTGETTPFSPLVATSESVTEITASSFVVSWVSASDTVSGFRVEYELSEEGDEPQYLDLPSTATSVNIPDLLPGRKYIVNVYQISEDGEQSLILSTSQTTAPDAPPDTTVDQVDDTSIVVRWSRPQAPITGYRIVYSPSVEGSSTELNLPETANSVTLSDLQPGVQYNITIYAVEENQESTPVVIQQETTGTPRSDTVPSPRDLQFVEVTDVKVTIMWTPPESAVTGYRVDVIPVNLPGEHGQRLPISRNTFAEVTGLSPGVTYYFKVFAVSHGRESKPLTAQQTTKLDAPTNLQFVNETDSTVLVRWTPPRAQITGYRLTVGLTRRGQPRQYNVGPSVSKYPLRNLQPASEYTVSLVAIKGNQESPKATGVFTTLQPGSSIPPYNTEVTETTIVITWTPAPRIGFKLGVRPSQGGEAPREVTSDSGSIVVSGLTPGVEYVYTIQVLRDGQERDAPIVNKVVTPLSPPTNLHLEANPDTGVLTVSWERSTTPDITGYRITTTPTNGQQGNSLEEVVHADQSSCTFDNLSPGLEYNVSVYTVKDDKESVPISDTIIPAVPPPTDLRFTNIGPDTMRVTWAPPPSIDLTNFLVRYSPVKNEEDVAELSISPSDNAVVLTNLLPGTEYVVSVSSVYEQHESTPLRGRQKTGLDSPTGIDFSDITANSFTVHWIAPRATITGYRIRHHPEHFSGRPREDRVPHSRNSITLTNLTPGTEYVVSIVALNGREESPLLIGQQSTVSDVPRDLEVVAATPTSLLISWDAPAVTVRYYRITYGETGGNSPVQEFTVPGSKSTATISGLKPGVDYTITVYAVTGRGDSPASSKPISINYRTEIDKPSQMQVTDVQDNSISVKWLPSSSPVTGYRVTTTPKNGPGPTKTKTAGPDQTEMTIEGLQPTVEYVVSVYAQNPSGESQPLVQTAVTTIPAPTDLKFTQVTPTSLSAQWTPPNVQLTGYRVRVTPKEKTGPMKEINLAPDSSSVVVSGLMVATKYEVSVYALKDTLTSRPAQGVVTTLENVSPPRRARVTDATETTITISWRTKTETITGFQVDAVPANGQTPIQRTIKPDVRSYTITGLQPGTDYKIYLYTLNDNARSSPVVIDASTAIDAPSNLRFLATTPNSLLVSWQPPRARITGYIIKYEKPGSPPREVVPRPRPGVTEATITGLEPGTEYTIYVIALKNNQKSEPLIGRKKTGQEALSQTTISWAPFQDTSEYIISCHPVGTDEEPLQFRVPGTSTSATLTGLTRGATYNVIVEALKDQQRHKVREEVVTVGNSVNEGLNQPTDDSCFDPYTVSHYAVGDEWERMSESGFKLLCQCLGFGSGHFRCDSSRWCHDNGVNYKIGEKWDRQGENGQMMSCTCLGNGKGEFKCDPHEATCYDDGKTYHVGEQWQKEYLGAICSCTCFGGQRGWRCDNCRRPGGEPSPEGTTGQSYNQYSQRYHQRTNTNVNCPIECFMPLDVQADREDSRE

In the case of MBP-OmpL1 (natural protein), the pKd (usually the Kd on a negative log10 scale, so that one unit is a factor of ten) is 6.06.
